Laboratory results taken from article PMC5390088, “Structural Basis for Substrate-specific Acetylation of Nα-acetyltransferase Ard1 from Sulfolobus solfataricus” (Scientific Reports, 2015).
Positions count from the first letter of the chain named. In names and notes the source's numbering stands.

B1: SsArd1 (Saccharolobus solfataricus P2) (protein)
chain: MELAEKDKGRDFTLRNARMDDIDQIIKINRLTLPENYPYYFFVEHLKEYGLAFFVAIVDNSVVGYIMPRIEWGFSNIKQLPSLVRKGHVVSIAVLEEYRRKGIATTLLEASMKSMKNDYNAEEIYLEVRVSNYPAIALYEKLNFKKVKVLKGYYADGEDAYLMARPL
notes: pET28a, C-terminal His6-tag, expressed in E. coli BL21(DE3); monomer
B2: SsArd1 (Saccharolobus solfataricus P2; N132A) (protein)
chain: B1 chain with N132A
notes: as for B1
B3: SsArd1 (Saccharolobus solfataricus P2; R100A) (protein)
chain: B1 chain with R100A
notes: as for B1
B4: SsArd1 (Saccharolobus solfataricus P2; T105A) (protein)
chain: B1 chain with T105A
notes: as for B1
B5: Alba peptide (SSGTPT), N-terminal 6-mer of the chromatin protein Alba (peptide)
peptide: SSGTPT
notes: N-terminal 6 residues of Alba of Sulfolobus solfataricus, which has Ser at its N-terminus; Only the first 2 residues are seen in the electron density of the ternary complex; also called Alba substrate peptide; 6-mer Alba peptide; source: synthetic peptide (GenScript)

Tests used:
SsArd1 = biological target: T1, SsArd1 (Saccharolobus solfataricus, UniProt Q980R9); assay: X-ray crystal structure, […] Å; assay type: binding; settings: co-crystallised binary complex; CoA also in ternary complex with peptide
T1 construct: gene ard1; pET28a, C-terminal His6-tag, expressed in E. coli BL21(DE3); monomer

[1] = substrate: CC(=O)SCCNC(=O)CCNC(=O)[C@H](O)C(C)(C)COP(=O)(O)OP(=O)(O)OC[C@H]1O[C@@H](n2cnc3c(N)ncnc32)[C@H](O)[C@@H]1OP(=O)(O)O; assay: Ellman (DTNB) acetyltransferase assay, Michaelis-Menten fit; assay type: biochemical, Saccharolobus solfataricus; settings: saturating Alba peptide (SSGTPT), pH 8.0, 65°C
Text: Ellman (DTNB) acetyltransferase assay, Michaelis-Menten fit on SsArd1

[2] = biological target: T2, SsArd1 E35F mutant (Sulfolobus solfataricus) (UniProt Q980R9)
T2 sequence: B1 chain with E35F

[3] = biological target: T3, SsArd1 E35V mutant (Sulfolobus solfataricus) (UniProt Q980R9)
T3 sequence: B1 chain with E35V

[4] = biological target: T4, SsArd1 E35A mutant (Sulfolobus solfataricus) (UniProt Q980R9)
T4 sequence: B1 chain with E35A

[5] = biological target: T5, Sulfolobus solfataricus Ard1 (SsArd1), wild type (Sulfolobus solfataricus, UniProt Q980R9 1-167); assay: crystal structure; SsArd1-CoA crystals soaked with 2 mM Alba peptide (SSGTPT), dehydrated over 12.5% w/v PEG 4,000; ternary SsArd1-CoA/peptide complex at 1.84 Å; settings: both partners purified
T5 construct: N-alpha-acetyltransferase Ard1 of Sulfolobus solfataricus (NatA family); one molecule in the asymmetric unit; also called wild-type SsArd1; source: E. coli BL21 (DE3), purified (Ni-Sepharose, size-exclusion chromatography)
T5 sequence: B1 chain

[6] = mutant given as R132A in Table 3, N132A in text

| Molecule | Km [1] [µM] | kcat [1] [s⁻¹] | kcat/Km [1] [M⁻¹ s⁻¹] | further results |
| --- | --- | --- | --- | --- |
| CC(C)(COP(=O)(O)OP(=O)(O)OC[C@H]1O[C@@H](n2cnc3c(N)ncnc32)[C@H](O)[C@@H]1OP(=O)(O)O)[C@@H](O)C(=O)NCCC(=O)NCCS [CoA] | – | – | – | X-ray crystal structure, 2.13 Å (SsArd1): 4R3K for SsArd1-CoA and 4R3L for SsArd1-CoA/peptide |
| B1 | 67.17 ± 7.48 | 0.5595 ± 0.0275 | 8370 | – |
| B2 | – | – | – | Km [1, 6]: 279.37 ± 75.86 µM; kcat [1, 6]: 0.556 ± 0.0647 s⁻¹; kcat/Km [1, 6]: 2050 M⁻¹ s⁻¹ |
| B3 | 466.98 ± 50.83 | 0.4783 ± 0.0448 | 1020 | – |
| B4 | 195.89 ± 12.27 | 0.5818 ± 0.0205 | 2970 | – |
| AAKKRG [Hjc peptide (AAKKRG), N-terminal 6-mer of the Holliday junction-resolving enzyme Hjc] | – | – | – | acetyltransferase activity with the Hjc substrate peptide, against wild-type SsArd1 and the E35A mutant [2]: 2 fold; acetyltransferase activity with the Hjc substrate peptide, against wild-type SsArd1 and the E35A mutant [3]: 2 fold |
| MEEKVG [SSB peptide (MEEKVG), N-terminal 6-mer of the single-stranded DNA-binding protein SSB] | – | – | – | acetyltransferase activity with the SSB substrate peptide, against wild-type SsArd1 [4]: 8 fold; acetyltransferase activity with the SSB substrate peptide, against wild-type SsArd1 [3]: 5 fold |
| B5 | – | – | – | binding result [5]: binds |
